Source: patent US20100112601A1

Target: PAC1 receptor expressed in Chinese hamster ovary (CHO) cells (UniProt P41586)
Assay: cell-based or functional assay

UniProt P41586, sequence (P41586 21-468 limits assumed): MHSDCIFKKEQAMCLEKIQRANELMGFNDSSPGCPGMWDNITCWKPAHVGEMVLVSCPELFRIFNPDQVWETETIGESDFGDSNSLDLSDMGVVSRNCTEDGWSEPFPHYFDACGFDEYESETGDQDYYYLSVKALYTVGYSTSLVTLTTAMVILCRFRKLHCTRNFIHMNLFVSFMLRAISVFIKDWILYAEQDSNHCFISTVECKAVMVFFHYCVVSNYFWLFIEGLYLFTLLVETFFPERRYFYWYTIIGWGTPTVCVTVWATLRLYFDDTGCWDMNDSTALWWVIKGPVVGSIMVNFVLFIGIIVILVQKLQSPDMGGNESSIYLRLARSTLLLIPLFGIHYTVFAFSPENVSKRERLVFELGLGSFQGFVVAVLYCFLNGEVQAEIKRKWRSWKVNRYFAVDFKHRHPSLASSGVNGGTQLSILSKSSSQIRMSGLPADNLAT

## PACAP(6-38)NH2 (from UniProt P18509 87-119) (peptide)
  inhibition of PACAP27-stimulated GTPγ-35S binding to membranes of PAC1-expressing CHO cells, IC50: 100 nM
